The test concerns the target B7-H3 on Hs-700T pancreatic cancer cells (UniProt Q5ZPR3). Kind of test: cell-based ELISA on fixed Hs-700T cells. (An ELISA detects its analyte on a solid surface through an enzyme-linked reagent.)

B1: P1D1 full-length IgG1 antibody (antibody, V domains shown)
VH: QVQLVQSGAEVKKPGESLKISCKGSGYSFTSYWIGWVRQMPGKGLEWMGIIYPGDSDTRYSPSFQGQVTISADKSISTAYLQWSSLKASDTAMYYCARRSVAGLDYWGQGTLVTVSS
VL: KTVVTQPPSASGTPGQRVTISCSGSSSNIGSKYVYWYQQLPGTAPRLLIYRNNQRPSGVPDRFSGSKSGTSASLAISGLRSEDESDYYCASWDDRLKGYAFGTGTKVTVL
As a reminder, the EC50 (read off the curve) is the midpoint of the concentration-response curve. A high value points to a need for much substance. The molecule B1 returned an EC50 (read off the curve) of 0.03 µg/mL.

B2: P1G2 full-length IgG1 antibody (antibody, V domains shown)
VH: QVQLQQSGAEVKKPGSSVKVSCKASGGTFSSYAISWVRQAPGQGLEWMGRIIPILGIANYAQKFQGRVTITADKSTSTAYMELSSLRSEDTAVYYCAVNYYDSSGYYSDYWGQGTLVTVSS
VL: SYELTQPPSASGSPGQSVTISCTGTSSDVGGYNYVSWYQQHPGKAPRLMIYGVSQRPSGVPDRFSGSKSGNTASLTVSGLQAEDEADYYCSSYANNNYVFGTGTKVTVL
In the case of B2, the concentration for a half-maximal effect (EC50 (read off the curve)) is 0.03 µg/mL.

(Values after patent publication US20220017620A1.)
